Source: paper PMC11621567 (Nature Communications, 2024)
Read-outs that look alike come from different tables or passages of the source.

Experiments:
cryo-EM structure [1] = biological target: the molecule itself; test: cryo-EM structure
cryo-EM structure [2] = biological target: the molecule itself; test: cryo-EM structure; remark: listed apart in the source

B1: human GPR156 EM (residues 1–346), apo (receptor)
chain: MEPEINCSELCDSFPGQELDRRPLHDLCKTTITSSHHSSKTISSLSPVLLGIVWTFLSCGLLLILFFLAFTIHCRKNRIVKMSSPNLNIVTLLGSCLTYSSAYLFGIQDVLVGSSMETLIQTRLSMLCIGTSLVFGPILGKSWRLYKVFTQRVPDKRVIIKDLQLLGLVAALLMADVILLMTWVLTDPIQCLQILSVSMTVTGKDVSCTSTSTHFCASRYSDVWIALIWGCKGLLLLYGAYLAGLTGHVSSPPVNQSLTIMVGVNLLVLAAGLLFVVTRYLHSWPNLVFGLTSGGIFVCTTTINCFIFIPQLKQWKAFEEENQTIRRMAKYFSTPNKSFHTQYGEE
- stoichiometry N (cryo-EM structure [1]): 2

B2: human GPR156 EM (residues 1–346) in the GPR156–Gi3 complex (receptor)
chain: B1 chain
- stoichiometry N (cryo-EM structure [2]): 2
